Test results reported in US20170096495A1 (Hoffmann-La Roche, published 2017).
Like-named read-outs stand apart in the source and are kept apart here.

Experiments:
[1] = biological target: T1, human STEAP-1 (Six-transmembrane epithelial antigen of prostate 1) (human, UniProt Q9UHE8 1-339); test: cell-based or functional assay
human CD3 = biological target: T2, human CD3 (human, UniProt P07766 23-207); test: flow cytometry on Jurkat cells
T2 construct: In the assays CD3 stood as the native complex on Jurkat cells, Jurkat-NFAT reporter cells or primary human T cells; also called CD3 epsilon

[2] = biological target: T1, human STEAP-1 (Six-transmembrane …); test: cell-based or functional assay; remark: listed apart in the source
[3] = biological target: T1, human STEAP-1 (Six-transmembrane …); test: flow cytometry on CHO-hSTEAP1 clone 2 cells, anti-human Fc secondary antibody
Method: The binding of STEAP-1 TCB molecules was tested, using STEAP-1-expressing CHO-hSTEAP1, clone 2 cells (an epithelial cell line derived from hamster ovary, that was transfected to stably overexpress human STEAP-1) and CD3-expressing immortalized T lymphocyte cells (Jurkat, DSMZ #ACC 282).
Briefly, adherent CHO-hSTEAP1 cells were harvested, using Cell Dissociation Buffer (Gibco, #13151014) counted, checked for viability and re-suspended at 2×10⁶ cells/ml in FACS buffer (100 μl PBS 0.1% BSA). Jurkat suspension cells were also harvested, counted and checked for viability. 100 μl of cell suspension (containing 0.2×10⁶ cells) were incubated in round-bottom 96-well plate for 30 min at 4° C. with increasing concentrations of the STEAP-1 TCB (31 pM-500 nM), washed twice with cold PBS containing 0.1% BSA (FACS buffer), re-incubated for further 30 min at 4° C. with the 1:50 pre-diluted FITC- or Alexa Fluor 647-conjugated AffiniPure F(ab′)2 Fragment goat-human IgG Fcg Fragment Specific secondary antibody (Jackson Immuno Research Lab, FITC #109-096-098, binding to Jurkats, or Jackson Immuno Research Lab, Alexa Fluor 647 #109-606-008, for binding to CHO-hSTEAP1, dilutions in FACS buffer) and washed twice with cold PBS 0.1% BSA. […] Staining was analyzed by FACS using a FACS Canto II (Software FACS Diva). […]

[4] = biological target: T1, human STEAP-1 (Six-transmembrane …); test: cell-based or functional assay; remark: listed apart in the source
[5] = biological target: T1, human STEAP-1 (Six-transmembrane …); test: cell-based or functional assay; remark: listed apart in the source
[6] = biological target: T1, human STEAP-1 (Six-transmembrane …); test: cell-based or functional assay; remark: listed apart in the source
[7] = biological target: T1, human STEAP-1 (Six-transmembrane …); test: cell-based or functional assay; remark: listed apart in the source

T1 sequence (Q9UHE8 whole entry): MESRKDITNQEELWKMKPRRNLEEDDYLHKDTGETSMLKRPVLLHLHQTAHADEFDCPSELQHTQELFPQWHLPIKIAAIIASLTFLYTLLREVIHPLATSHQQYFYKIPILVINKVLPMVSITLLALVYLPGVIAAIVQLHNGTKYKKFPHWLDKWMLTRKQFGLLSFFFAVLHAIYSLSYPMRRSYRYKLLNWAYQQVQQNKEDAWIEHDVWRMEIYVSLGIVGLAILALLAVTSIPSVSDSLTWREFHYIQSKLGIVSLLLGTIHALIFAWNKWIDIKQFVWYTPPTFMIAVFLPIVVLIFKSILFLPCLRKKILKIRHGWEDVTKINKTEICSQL
T2 sequence (P07766 23-207 limits assumed): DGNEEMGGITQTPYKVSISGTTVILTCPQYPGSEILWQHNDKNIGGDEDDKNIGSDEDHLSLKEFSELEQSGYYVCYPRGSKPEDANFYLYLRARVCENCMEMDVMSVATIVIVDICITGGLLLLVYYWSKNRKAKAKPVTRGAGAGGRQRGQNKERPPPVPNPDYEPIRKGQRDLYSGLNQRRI

B1: STEAP-1 TCB Molecule A: "2+1 IgG CrossFab, inverted" with charge modifications (VH/VL exchange in CD3 binder, charge modification in STEAP-1 binders) (bispecific antibody)
heavy 1: not shown
heavy 2: EVQLVESGGGLVQPGGSLRLSCAVSGYSITSDYAWNWVRQAPGKGLEWVGYISNSGSTSYNPSLKSRFTISRDTSKNTLYLQMNSLRAEDTAVYYCARERNYDYDDYYYAMDYWGQGTLVTVSSASTKGPSVFPLAPSSKSTSGGTAALGCLVEDYFPEPVTVSWNSGALTSGVHTFPAVLQSSGLYSLSSVVTVPSSSLGTQTYICNVNHKPSNTKVDEKVEPKSCDKTHTCPPCPAPEAAGGPSVFLFPPKPKDTLMISRTPEVTCVVVDVSHEDPEVKFNWYVDGVEVHNAKTKPREEQYNSTYRVVSVLTVLHQDWLNGKEYKCKVSNKALGAPIEKTISKAKGQPREPQVCTLPPSRDELTKNQVSLSCAVKGFYPSDIAVEWESNGQPENNYKTTPPVLDSDGSFFLVSKLTVDKSRWQQGNVFSCSVMHEALHNHYTQKSLSLSP
light 1: DIQMTQSPSSLSASVGDRVTITCKSSQSLLYRSNQKNYLAWYQQKPGKAPKLLIYWASTRESGVPSRFSGSGSGTDFTLTISSLQPEDFATYYCQQYYNYPRTFGQGTKVEIKRTVAAPSVFIFPPSDRKLKSGTASVVCLLNNFYPREAKVQWKVDNALQSGNSQESVTEQDSKDSTYSLSSTLTLSKADYEKHKVYACEVTHQGLSSPVTKSFNRGEC
light 2: EVQLLESGGGLVQPGGSLRLSCAASGFTFSTYAMNWVRQAPGKGLEWVSRIRSKYNNYATYYADSVKGRFTISRDDSKNTLYLQMNSLRAEDTAVYYCVRHGNFGNSYVSWFAYWGQGTLVTVSSASVAAPSVFIFPPSDEQLKSGTASVVCLLNNFYPREAKVQWKVDNALQSGNSQESVTEQDSKDSTYSLSSTLTLSKADYEKHKVYACEVTHQGLSSPVTKSFNRGEC
B1 was tested, and the “EC50 [pM] 24 h, STEAP-1 TCB-mediated lysis of LnCaP cells (LDH release)” value [1] was 13.7 pM, the “EC50 [pM] 48 h, STEAP-1 TCB-mediated lysis of LnCaP cells (LDH release)” value [1] was 6.35 pM and the binding result (human CD3) was “binds”. The “EC50 [nM], activation of Jurkat-NFAT reporter cells (luminescence after 6 h) with LnCaP cells” value [2] was 3.58 nM, the EC50 [3] was 20.2 nM and the “EC50 [pM] 24 h, T-cell mediated lysis of LnCaP cells (LDH release)” value [4] was 36.8 pM. The “EC50 [pM] 48 h, T-cell mediated lysis of LnCaP cells (LDH release)” value [4] was 31.4 pM, the “EC50 (pM), activation of primary T cells with LnCaP cells, 48 h: % CD4 + CD25+” value [5] was 447 pM and the “EC50 (pM), activation of primary T cells with LnCaP cells, 48 h: % CD4 + CD69+” value [5] was 300 pM. For the same binder, the “EC50 (pM), activation of primary T cells with LnCaP cells, 48 h: % CD8 + CD25+” value [5] was 271 pM, the “EC50 (pM), activation of primary T cells with LnCaP cells, 48 h: % CD8 + CD69+” value [5] was 124 pM and the “EC50 [nM], activation of Jurkat-NFAT reporter cells (luminescence after 6 h), presence of CHO-hSTEAP1” value [6] was 7.19 nM. For the same binder, the “EC50 [nM], activation of Jurkat-NFAT reporter cells (luminescence after 6 h), presence of LnCaP cells” value [6] was 1.36 nM and the “EC50 [nM], activation of Jurkat-NFAT reporter cells (luminescence after 6 h), presence of CHO-hSTEAP1” value [7] was 0.1 nM.
